In patent publication US9213031B2, “Use of Cbl as biomarker for identifying subject suitable for treatment with anti-c-Met antibody” (SAMSUNG ELECTRONICS CO., LTD., priority 2012, dated 2015):

B1: L3-1Y (2): contains the same epitope as L3-1Y but has the hIgG2 backbone (antibody)
heavy: EVQLVESGGGLVQPGGSLRLSCAASGFTFTDYYMSWVRQAPGKGLEWLGFIRNKANGYTTEYSASVKGRFTISRDNSKNTLYLQMNSLRAEDTAVYYCARDNWFAYWGQGTLVTVSSASTKGPSVFPLAPCSRSTSESTAALGCLVKDYFPEPVTVSWNSGALTSGVHTFPAVLQSSGLYSLSSVVTVPSSNFGTQTYTCNVDHKPSNTKVDKTVERKCCVECPPCPAPPVAGPSVFLFPPKPKDTLMISRTPEVTCVVVDVSHEDPEVQFNWYVDGVEVHNAKTKPREEQFNSTFRVVSVLTVVHQDWLNGKEYKCKVSNKGLPAPIEKTISKTKGQPREPQVYTLPPSREEMTKNQVSLTCLVKGFYPSDIAVEWESNGQPENNYKTTPPMLDSDGSFFLYSKLTVDKSRWQQGNVFSCSVMHEALHNHYTQKSLSLSPGK
light: DIQMTQSPSSLSASVGDRVTITCKSSQSLLASGNQNNYLAWYQQKPGKAPKMLIIWASTRVSGVPSRFSGSGSGTDFTLTISSLQPEDFATYYCQQSYSRPYTFGQGTKVEIKRTVAAPSVFIFPPSDEQLKSGTASVVCLLNNFYPREAKVQWKVDNALQSGNSQESVTEQDSKDSTYSLSSTLTLSKADYEKHKVYACEVTHQGLSSPVTKSFNRGEC

Columns and labels:
HCC827 ER15 cells = conditions: HCC827 ER15, 72 hours, L3-1Y 0.14 μg/ml, Erlotinib 10 nm
Experimental: HCC827 ER15, which expresses c-Met at a high level but Cbl at a relatively low level was used in assay for the apoptotic effect of a combination dosage of an anti-c-Met antibody and an EGFR antagonist.
Then, cell viability was measured in the same manner as in Example 1.4.

EBC-1 tumor = assay: Tumor xenograft model, EBC-1; type: in vivo, BALB/c nude mice; conditions: EBC-1 xenograft, 5 mg/kg I.V. once/week, 28th day
Experimental: (§1) For use in examining in vivo effects of anti-c-Met antibody on tumor growth, male BALB/c nude mice, 5˜6 weeks old, were xenografted with a tumor (all experiments were carried out in Pharmalegacy, China). For at least one week before the transplantation, the mice were acclimated.
(§2) Then, the mice were anesthetized with 1-2% isofuran and xenografted subcutaneously in the right flank with 5×10^6 cells of EBC-1 or HS746T. Seven days after the grafting, the tumors measured 50 mm3 or greater on average. The mice were divided into the following three groups: 5D5 (5 mg/kg I.V. once/week) treated, L3-1Y (5 mg/kg I.V. once/week) treated, and vehicle (PBS 0.2 ml I.V. once/week) treated (control). Each group was composed of 15 mice.
(§3) Over a total of five weeks, volumes and weights of the tumors were measured […]. Tumor volume (V) was calculated according to the following formula: V (mm3)={Long Axis Length (mm)×(Small Axis Length (mm))2}/2.
(§4) L3-1Y (1) is an antibody based on hIgG1 with the Th7 hinge (usually referred to just as L3-1Y) while L3-1Y (2) contains the same epitope but has the hIgG2 backbone. […] Tumor suppression of each of the antibodies was expressed as percentages of volume reduction compared to the tumor volume on the 28th day of the vehicle-treated group (0%) in Table 3 for EBC-1 and Table 4 for HS746T.

HS746T tumor = assay: Tumor xenograft model, HS746T; type: in vivo, BALB/c nude mice; conditions: 5 mg/kg I.V. once/week, 28th day
Experimental: as §1, §2, §3, §4

Molecule | cell viability as percentage of untreated control (HCC827 ER15 cells) | At d28:TV; tumor suppression as percentage of volume reduction compared to vehicle-treated group (EBC-1 tumor) | At d28:TV; tumor suppression as percentage of volume reduction compared to vehicle-treated group (HS746T tumor)
C#Cc1cccc(Nc2ncnc3cc(OCCOC)c(OCCOC)cc23)c1 [Erlotinib] | almost no apoptotic effects | – | –
B1 | – | 87.0% | Regression
